Among the data in patent publication CN114805589A are 效价 (titer) and 发光值 (luminescence value) values, retold here.

Experiment [1] addresses 山羊IgG (山羊 (goat)). The experiment is described as follows: indirect ELISA, IgG coated at 1 ug/mL, HRP goat anti-mouse IgG detection, OD450. The note with it: scale: reciprocal dilution. For orientation: An ELISA detects its analyte on a solid surface through an enzyme-linked reagent.
Experiment [2] has as its target 绵羊IgG (绵羊 (sheep)). The experiment is described as above. The conditions noted are these: scale: reciprocal dilution.
For experiment [3], the target named is 牛IgG (牛 (bovine)). Described as above. The note with it: scale: reciprocal dilution.
Experiment [4] has as its target 山羊IgG (山羊 (goat)). The experiment is described as follows: direct magnetic-particle chemiluminescence, IgG on magnetic particles, HRP-labelled 4C-1 at 1:4000.
The target of experiment [5] is 绵羊IgG (绵羊 (sheep)). The description is as above.
The target of experiment [6] is 牛IgG (牛 (bovine)). The description is as above.

B1: 鼠单克隆抗体 二抗4C-1 (antibody, part only; not given: Light chain variable domain, V domains shown, part only)
VH: QVQLKQSGPELVKPGASVKMSCKASGYTFTSYVIHWVKQKPGQGLEWIGYINPYNDNTEYNEKFKGKATLTSDKSSSTAYMELSSLTSEDSAVYYCARREGGYYVFTYWGQGTLVTVSA
Take B1: the 效价 (titer) in the experiment with 山羊IgG (山羊 (goat)) [1], with 绵羊IgG (绵羊 (sheep)) [2] and in the experiment with 牛IgG (牛 (bovine)) [3] was over 256000 each time. In addition, the 发光值 (luminescence value) in the experiment with 山羊IgG (山羊 (goat)) [4], in the experiment with 绵羊IgG (绵羊 (sheep)) [5] and with 牛IgG (牛 (bovine)) [6] was > 100000 发光值 each time.
